Source: the supplement of paper PMC11316812
± gives the standard deviation of the averaged measurements.

What was measured:
[1] = system: hTERT-HMEC; test: percentage of EdU-negative (G0-arrested) nuclei per well, 72 h; higher = more G0 arrest; settings: reference: sequence is the full UniProt precursor, the tested protein was the secreted form or ectodomain
[2] = system: MCF7; test: as above; settings: reference: sequence is the full UniProt precursor, the tested protein was the secreted form or ectodomain
[3] = protein concentration 0.0225 µM
[4] = protein concentration 0.0134286 µM
[5] = protein concentration 0.134286 µM
[6] = protein concentration 0.00925 µM
[7] = protein concentration 0.0925 µM
[8] = protein concentration 0.01655 µM
[9] = protein concentration 0.1655 µM
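Note: secreted proteins added to cultured cells, EdU pulse at the end, nuclei found by Hoechst imaging, EdU status from nuclear versus surrounding ring intensity ratio, PBS as neutral control.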

With “MNNLLCCALVFLDISIKWTTQETFPPKYLHYDEETSHQLLCDKCPPGTYLKQHCTAKWKTVCAPCPDHYYTDSWHTSDECLYCSPVCKELQYVKQECNRTHNRVCECKEGRYLEIEFCLKHRSCPPGFGVVQAGTPERNTVCKRCPDGFFSNETSSKAPCRKHTNCSVFGLLLTQKGNATHDNICSGNSESTQKCGIDVTLCEEAFFRFAVPTKFTPNWLSVLVDNLPGTKVNAESVERIKRQHSSQEQTFQLLKLWKHQNKDQDIVKKIIQDIDLCENSVQRHIGHANLTFEQLRSLMESLPGKKVGAEDIEKTIKACKPSDQILKLLSLWRIKNGDQDTLKGLMHALKHSKTYHFPKTVTQSLKKTIRFLHSFTMYKLYQKLFLEMIGNQVQSVKISCL” the “percentage of EdU-negative” value ([1]; protein concentration 0.034 µM) was 4.98 ± 0.78%, the “percentage of EdU-negative” value ([1]; protein concentration 0.34 µM) was 8.17 ± 0.14% and the “percentage of EdU-negative” value ([2]; protein concentration 0.034 µM) was 22.2 ± 1.3%. For the same substance, the “percentage of EdU-negative” value ([2]; protein concentration 0.34 µM) was 29.5 ± 1%.
In the case of “MSDSKEPRVQQLGLLEEDPTTSGIRLFPRDFQFQQIHGHKSSTGCLGHGALVLQLLSFMLLAGVLVAILVQVSKVPSSLSQEQSEQDAIYQNLTQLKAAVGELSEKSKLQEIYQELTQLKAAVGELPEKSKLQEIYQELTRLKAAVGELPEKSKLQEIYQELTRLKAAVGELPEKSKLQEIYQELTRLKAAVGELPEKSKLQEIYQELTELKAAVGELPEKSKLQEIYQELTQLKAAVGELPDQSKQQQIYQELTDLKTAFERLCRHCPKDWTFFQGNCYFMSNSQRNWHDSVTACQEVRAQLVVIKTAEEQNFLQLQTSRSNRFSWMGLSDLNQEGTWQWVDGSPLSPSFQRYWNSGEPNNSGNEDCAEFSGSGWNDNRCDVDNYWICKKPAACFRDE [Q9H2X3]”, the “percentage of EdU-negative” value [1, 3] is reported as 5.68 ± 0.32%, the “percentage of EdU-negative” value ([1]; protein concentration 0.225 µM) is reported as 6.17 ± 0.82% and the “percentage of EdU-negative” value [2, 3] is reported as 27 ± 3.5%. The “percentage of EdU-negative” value ([2]; protein concentration 0.225 µM) was 23.8 ± 2.6%.
In the case of P20908, the “percentage of EdU-negative” value [1, 4] is reported as 5.6 ± 0.17%, the “percentage of EdU-negative” value [1, 5] is reported as 25.8 ± 0.52% and the “percentage of EdU-negative” value [2, 4] is reported as 23.71 ± 0.12%. For the same substance, the “percentage of EdU-negative” value [2, 5] was 28.6 ± 1.4%.
With “MKGICSDAILVLATSMWMAFAIDFPLPMASERGQLDKTIVECLKNVNKCWFLSYIKPSEPICGSDQVTYSSDCHLCSKILFEGLNITKLYDGQCENS [P0C7L1]” the “percentage of EdU-negative” value [1, 3] was 5.76 ± 1.6%, the “percentage of EdU-negative” value ([1]; protein concentration 0.225 µM) was 7.03 ± 0.23% and the “percentage of EdU-negative” value [2, 3] was 23.2 ± 2.9%. The “percentage of EdU-negative” value ([2]; protein concentration 0.225 µM) was 26.1 ± 0.36%.
“MPPGPWESCFWVGGLILWLSVGSSGDAPPTPQPKCADFQSANLFEGTDLKVQFLLFVPSNPSCGQLVEGSSDLQNSGFNATLGTKLIIHGFRVLGTKPSWIDTFIRTLLRATNANVIAVDWIYGSTGVYFSAVKNVIKLSLEISLFLNKLLVLGVSESSIHIIGVSLGAHVGGMVGQLFGGQLGQITGLDPAGPEYTRASVEERLDAGDALFVEAIHTDTDNLGIRIPVGHVDYFVNGGQDQPGCPTFFYAGYSYLICDHMRAVHLYISALENSCPLMAFPCASYKAFLAGRCLDCFNPFLLSCPRIGLVEQGGVKIEPLPKEVKVYLLTTSSAPYCMHHSLVEFHLKELRNKDTNIEVTFLSSNITSSSKITIPKQQRYGKGIIAHATPQCQINQVKFKFQSSNRVWKKDRTTIIGKFCTALLPVNDREKMVCLPEPVNLQASVTVSCDLKIACV [Q53H76]” was tested, and the “percentage of EdU-negative” value [1, 6] was 4.11 ± 0.46%, the “percentage of EdU-negative” value [1, 7] was 6.06 ± 0.41% and the “percentage of EdU-negative” value [2, 6] was 24.3 ± 1.9%. The “percentage of EdU-negative” value [2, 7] was 28.4 ± 1.4%.
With “MPGSPRPAPSWVLLLRLLALLRPPGLGEACSCAPAHPQQHICHSALVIRAKISSEKVVPASADPADTEKMLRYEIKQIKMFKGFEKVKDVQYIYTPFDSSLCGVKLEANSQKQYLLTGQVLSDGKVFIHLCNYIEPWEDLSLVQRESLNHHYHLNCGCQITTCYTVPCTISAPNECLWTDWLLERKLYGYQAQHYVCMKHVDGTCSWYRGHLPLRKEFVDIVQP” the “percentage of EdU-negative” value [1, 8] was 5.41 ± 0.19%, the “percentage of EdU-negative” value [1, 9] was 6.76 ± 0.1% and the “percentage of EdU-negative” value [2, 8] was 26.2 ± 1.7%. The “percentage of EdU-negative” value [2, 9] was 27.1 ± 0.65%.
For “MARYMLLLLLAVWVLTGELWPGAEARAAPYGVRLCGREFIRAVIFTCGGSRWRRSDILAHEAMGDTFPDADADEDSLAGELDEAMGSSEWLALTKSPQAFYRGRPSWQGTPGVLRGSRDVLAGLSSSCCKWGCSKSEISSLC [Q8WXF3]”, the “percentage of EdU-negative” value [1, 3] was 4.41 ± 0.39%, the “percentage of EdU-negative” value ([1]; protein concentration 0.225 µM) was 5.85 ± 0.42% and the “percentage of EdU-negative” value [2, 3] was 26.3 ± 1.9%. For the same substance, the “percentage of EdU-negative” value ([2]; protein concentration 0.225 µM) was 26.3 ± 0.94%.
